Laboratory results from article PMC9755262 (Nature Communications, 2022).
Where a chain is given by its changes, count along the chain named. Numbers in names are those of the source.

Experiments:
[1] = target: GST-NUT8 wild type (396-470) (UniProt Q86Y26); experiment: BLI; GST-NUT8 wild type or mutants loaded on Anti-GST biosensors, TAZ2 (1723-1836) as analyte; 25 °C; 1x PBS, 0.1% BSA, 0.02% Tween 20; steady-state analysis
NUT4 (347-480), Q86Y26 = target: T1, NUT4 (347-480), Q86Y26; experiment: SEC-MALS; Superdex 75 Increase 10/300 GL, 20 mM HEPES pH 7.0, 300 mM NaCl, 5 µM ZnSO4, 0.5 mM TCEP; 50 µl at 2 mg/ml injected
T1 chain: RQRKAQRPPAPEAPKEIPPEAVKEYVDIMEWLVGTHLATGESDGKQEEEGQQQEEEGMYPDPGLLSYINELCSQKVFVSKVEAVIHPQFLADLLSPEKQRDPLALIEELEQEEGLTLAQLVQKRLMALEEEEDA

[2] = target: T2, p300 TAZ2 domain (1723-1836), Q09472; experiment: BLI; settings: chain shown with the change, read off a plot
T2 chain: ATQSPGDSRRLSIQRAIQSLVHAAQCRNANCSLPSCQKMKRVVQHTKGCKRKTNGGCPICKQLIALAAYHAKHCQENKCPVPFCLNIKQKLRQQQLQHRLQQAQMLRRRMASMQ

[3] = target: T3, NUT-F1c (347-588), tag cleaved (UniProt Q86Y26 347-588); experiment: SEC; complex run on HiLoad Superdex 200, Superdex 200 Increase 10/300 GL or Superdex 75 Increase 10/300 GL; SDS-PAGE of the peak fractions; settings: both partners purified
T3 construct: not shown: His6-GST (pETM-30) or His6 (pETM11), N-terminal, cleaved

“p300 TAZ2 domain (1723-1836) (from UniProt Q09472 1723-1836) (domain or fragment)” showed a Kd [1] of 960 nM.

B1: p300 TAZ2 domain (construct limits not told for the experiment) (domain or fragment)
chain: T2 chain
modifications: not checked
B1 showed a stoichiometry N (NUT4 (347-480), Q86Y26) of 1.

B2: GST-NUT8 wild type D447A; L449A; A450G; L451A; E453A; E454A; L455A; E456A; E458A; E459A; L461A; T462A (protein)
chain: GQQQEEEGMYPDPGLLSYINELCSQKVFVSKVEAVIHPQFLADLLSPEKQRAPAGAIAAAAQAAGAALAQLVQKRLMALEEEEDAE
In the case of B2, the response ([2]; TAZ2 2.5 µM, parent: est. 0.18) is reported as 0.07 nm, the response ([2]; TAZ2 5 µM, parent: est. 0.21) is reported as 0.11 nm and the response ([2]; TAZ2 10 µM, parent: est. 0.22) is reported as 0.13 nm.

B3: GST-NUT8 wild type L436A; L439A; L440A; D447A; L449A; A450G; L451A; E453A; E454A; L455A; E456A; E458A; E459A; L461A; T462A (protein)
chain: B2 chain with L41A, L44A, L45A
Molecule B3 has a response ([2]; TAZ2 2.5 µM, parent: est. 0.18) of 0.075 nm, a response ([2]; TAZ2 5 µM, parent: est. 0.21) of 0.14 nm and a response ([2]; TAZ2 10 µM, parent: est. 0.22) of 0.2 nm.

B4: p300 CH3 domain (1660-1815) (domain or fragment, UniProt Q09472 1660-1815, looked up)
chain: TQSQDRFVYTCNECKHHVETRWHCTVCEDYDLCITCYNTKNHDHKMEKLGLGLDDESNNQQAAATQSPGDSRRLSIQRCIQSLVHACQCRNANCSLPSCQKMKRVVQHTKGCKRKTNGGCPICKQLIALCCYHAKHCQENKCPVPFCLNIKQKLRQ
notes: p300 CH3 domain, residues 1660-1815, in pGEX-5x1 with a TEV-cleavable GST tag
B4: binds [3].

B5: GST-NUT8 wild type L410A; L411A; Y413A; L417A; C418A; F423A; V424A; V427A; V430A; I431A; F435A; L436A; L439A; L440A; D447A; L449A; A450G; L451A; E453A; E454A; … (protein)
chain: GQQQEEEGMYPDPGAASAINEAASQKVAASKAEAAAHPQAAADAASPEKQRAPAGAIAAAAQAAGAALAQLVQKRLMALEEEEDAE
For B5, the response ([2]; TAZ2 10 µM, parent: est. 0.22) was 0.085 nm.

B6: GST-NUT8 wild type D407K; L410A; Y413K; C418G; F423A; V424G; E428S; V430G; P433G; F435S; L439G; L440S; D447K; A450G; L451S; E454K; L455S; E458K; E459S; L461G; … (protein)
chain: GQQQEEEGMYPKPGALSKINELGSQKVAGSKVSAGIHGQSLADGSSPEKQRKPLGSIEKSEQKSGGSLAQLVQKRLMALEEEEDAE
B6 gave a response ([2]; TAZ2 10 µM, parent: est. 0.22) of 0.03 nm.
